Data: EP4786492A1
Each block holds one binder with its values, some of them ahead of it.

Tests used:
[1] = target: human delta-like ligand 3 (DLL3) on SHP77 cells (human) (UniProt Q9NYJ7); assay: FACS on SHP77 cells
[2] = target: DLL3 endogenously expressed on NCI-H82 cells (UniProt Q9NYJ7); assay: FACS on NCI-H82 cells; antibody 4 nM
[3] = target: DLL3 endogenously expressed on NCI-H82 cells (UniProt Q9NYJ7); assay: FACS on NCI-H82 cells; antibody 20 nM
[4] = target: DLL3 endogenously expressed on NCI-H82 cells (UniProt Q9NYJ7); assay: FACS on NCI-H82 cells; antibody 0.8 nM
[5] = target: DLL3 endogenously expressed on NCI-H82 cells (UniProt Q9NYJ7); assay: FACS on NCI-H82 cells; antibody 100 nM
[6] = target: DLL3 endogenously expressed on NCI-H82 cells (UniProt Q9NYJ7); assay: FACS on NCI-H82 cells; antibody 0.16 nM
[7] = target: human DLL3 protein expressed on CHO-K1 recombinant cells (human DLL3 extracellular segment fused to EpCAM transmembrane and intracellular regions) (human) (UniProt Q9NYJ7); assay: FACS, CHO-K1 hDLL3 cells, 4 nM antibody
Chain of human DLL3 protein expressed on CHO-K1 recombinant cells (human DLL3 extracellular segment fused to EpCAM transmembrane and intracellular regions) (human) (Q9NYJ7 other isoform, or with tags, fused parts or gaps limits assumed): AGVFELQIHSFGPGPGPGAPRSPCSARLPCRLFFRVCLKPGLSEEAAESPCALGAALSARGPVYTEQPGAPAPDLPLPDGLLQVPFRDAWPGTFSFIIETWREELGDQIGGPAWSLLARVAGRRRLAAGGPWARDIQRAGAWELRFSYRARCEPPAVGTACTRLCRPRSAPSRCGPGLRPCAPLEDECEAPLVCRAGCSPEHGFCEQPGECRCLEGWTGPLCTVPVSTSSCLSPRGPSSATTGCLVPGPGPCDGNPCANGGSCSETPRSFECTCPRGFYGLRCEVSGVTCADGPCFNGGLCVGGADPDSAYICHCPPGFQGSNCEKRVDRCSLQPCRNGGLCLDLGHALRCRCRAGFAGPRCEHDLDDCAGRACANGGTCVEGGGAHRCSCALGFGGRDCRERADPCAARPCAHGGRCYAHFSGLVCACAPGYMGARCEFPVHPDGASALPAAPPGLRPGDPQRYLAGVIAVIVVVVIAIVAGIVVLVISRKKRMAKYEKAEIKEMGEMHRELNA

[8] = target: mouse DLL3 on CHO-K1-mDLL3 cells (mouse) (UniProt O88516); assay: FACS, CHO-K1-mDLL3 cells, 4 nM antibody
Chain of mouse DLL3 on CHO-K1-mDLL3 cells (mouse) (O88516 other isoform, or with tags, fused parts or gaps limits assumed): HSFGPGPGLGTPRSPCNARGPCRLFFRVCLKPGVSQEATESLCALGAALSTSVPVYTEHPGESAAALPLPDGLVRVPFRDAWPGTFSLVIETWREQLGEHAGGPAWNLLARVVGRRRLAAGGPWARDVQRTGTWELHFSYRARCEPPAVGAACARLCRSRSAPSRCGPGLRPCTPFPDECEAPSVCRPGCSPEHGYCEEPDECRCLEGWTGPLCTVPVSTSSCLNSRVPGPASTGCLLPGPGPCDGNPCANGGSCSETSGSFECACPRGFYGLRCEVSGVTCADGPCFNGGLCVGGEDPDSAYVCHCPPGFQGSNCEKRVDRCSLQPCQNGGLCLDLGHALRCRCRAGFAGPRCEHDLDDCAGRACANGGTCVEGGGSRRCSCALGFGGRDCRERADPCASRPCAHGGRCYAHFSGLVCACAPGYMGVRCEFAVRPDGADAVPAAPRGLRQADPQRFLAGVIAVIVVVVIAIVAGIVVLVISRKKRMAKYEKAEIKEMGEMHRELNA

[9] = target: DLL3 endogenously expressed on NCI-H82 cells (UniProt Q9NYJ7); assay: FACS on NCI-H82 cells; antibody 0.032 nM
[10] = target: human DLL3 protein expressed on CHO-K1 recombinant cells (human DLL3 extracellular segment fused to EpCAM transmembrane and intracellular regions) (human) (UniProt Q9NYJ7); assay: FACS, CHO-K1 hDLL3 cells, 20 nM antibody
[11] = target: mouse DLL3 on CHO-K1-mDLL3 cells (mouse) (UniProt O88516); assay: FACS, CHO-K1-mDLL3 cells, 20 nM antibody
[12] = target: DLL3 endogenously expressed on NCI-H82 cells (UniProt Q9NYJ7); assay: FACS on NCI-H82 cells; antibody 0.0064 nM
[13] = target: human DLL3 protein expressed on CHO-K1 recombinant cells (human DLL3 extracellular segment fused to EpCAM transmembrane and intracellular regions) (human) (UniProt Q9NYJ7); assay: FACS, CHO-K1 hDLL3 cells, 0.8 nM antibody
[14] = target: human DLL3 protein expressed on CHO-K1 recombinant cells (human DLL3 extracellular segment fused to EpCAM transmembrane and intracellular regions) (human) (UniProt Q9NYJ7); assay: FACS, CHO-K1 hDLL3 cells, 100 nM antibody
[15] = target: mouse DLL3 on CHO-K1-mDLL3 cells (mouse) (UniProt O88516); assay: FACS, CHO-K1-mDLL3 cells, 0.8 nM antibody
[16] = target: mouse DLL3 on CHO-K1-mDLL3 cells (mouse) (UniProt O88516); assay: FACS, CHO-K1-mDLL3 cells, 100 nM antibody
[17] = target: DLL3 endogenously expressed on NCI-H82 cells (UniProt Q9NYJ7); assay: FACS on NCI-H82 cells; antibody 0.00128 nM
[18] = target: human DLL3 protein expressed on CHO-K1 recombinant cells (human DLL3 extracellular segment fused to EpCAM transmembrane and intracellular regions) (human) (UniProt Q9NYJ7); assay: FACS, CHO-K1 hDLL3 cells, 0.16 nM antibody
[19] = target: mouse DLL3 on CHO-K1-mDLL3 cells (mouse) (UniProt O88516); assay: FACS, CHO-K1-mDLL3 cells, 0.16 nM antibody
[20] = target: human DLL3 protein expressed on CHO-K1 recombinant cells (human DLL3 extracellular segment fused to EpCAM transmembrane and intracellular regions) (human) (UniProt Q9NYJ7); assay: FACS, CHO-K1 hDLL3 cells, 0.032 nM antibody
[21] = target: mouse DLL3 on CHO-K1-mDLL3 cells (mouse) (UniProt O88516); assay: FACS, CHO-K1-mDLL3 cells, 0.032 nM antibody
[22] = target: human DLL3 protein expressed on CHO-K1 recombinant cells (human DLL3 extracellular segment fused to EpCAM transmembrane and intracellular regions) (human) (UniProt Q9NYJ7); assay: FACS, CHO-K1 hDLL3 cells, 0.0064 nM antibody
[23] = target: mouse DLL3 on CHO-K1-mDLL3 cells (mouse) (UniProt O88516); assay: FACS, CHO-K1-mDLL3 cells, 0.0064 nM antibody
[24] = target: human DLL3 protein expressed on CHO-K1 recombinant cells (human DLL3 extracellular segment fused to EpCAM transmembrane and intracellular regions) (human) (UniProt Q9NYJ7); assay: FACS, CHO-K1 hDLL3 cells, 0.00128 nM antibody
[25] = target: mouse DLL3 on CHO-K1-mDLL3 cells (mouse) (UniProt O88516); assay: FACS, CHO-K1-mDLL3 cells, 0.00128 nM antibody
[26] = target: human DLL1 protein (Acro, Cat. No. DL1-H52H8) (human) (UniProt O00548); assay: ELISA, coated hDLL1; maximum over 0.1, 1, 10, 100 nM antibody
Chain of human DLL1 protein (Acro, Cat. No. DL1-H52H8) (human) (O00548 18-540 limits assumed): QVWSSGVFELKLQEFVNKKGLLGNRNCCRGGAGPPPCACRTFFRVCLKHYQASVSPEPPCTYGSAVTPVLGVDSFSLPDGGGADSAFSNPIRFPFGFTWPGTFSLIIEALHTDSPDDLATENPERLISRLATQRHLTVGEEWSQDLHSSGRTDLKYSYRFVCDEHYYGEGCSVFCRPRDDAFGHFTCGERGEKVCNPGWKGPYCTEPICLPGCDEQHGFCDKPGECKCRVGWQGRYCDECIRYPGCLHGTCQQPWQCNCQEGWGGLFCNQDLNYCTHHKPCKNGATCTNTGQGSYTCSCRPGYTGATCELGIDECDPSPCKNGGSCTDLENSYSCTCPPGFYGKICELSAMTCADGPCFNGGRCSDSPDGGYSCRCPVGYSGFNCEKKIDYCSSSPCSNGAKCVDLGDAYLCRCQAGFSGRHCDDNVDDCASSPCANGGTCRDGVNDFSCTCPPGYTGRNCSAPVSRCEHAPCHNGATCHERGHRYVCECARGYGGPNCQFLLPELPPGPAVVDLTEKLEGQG

[27] = target: human DLL4 protein (Acro, Cat. No. DL4-H5227) (human) (UniProt Q9NR61); assay: ELISA, coated hDLL4; maximum over 0.1, 1, 10, 100 nM antibody
Chain of human DLL4 protein (Acro, Cat. No. DL4-H5227) (human) (Q9NR61 27-524 limits assumed): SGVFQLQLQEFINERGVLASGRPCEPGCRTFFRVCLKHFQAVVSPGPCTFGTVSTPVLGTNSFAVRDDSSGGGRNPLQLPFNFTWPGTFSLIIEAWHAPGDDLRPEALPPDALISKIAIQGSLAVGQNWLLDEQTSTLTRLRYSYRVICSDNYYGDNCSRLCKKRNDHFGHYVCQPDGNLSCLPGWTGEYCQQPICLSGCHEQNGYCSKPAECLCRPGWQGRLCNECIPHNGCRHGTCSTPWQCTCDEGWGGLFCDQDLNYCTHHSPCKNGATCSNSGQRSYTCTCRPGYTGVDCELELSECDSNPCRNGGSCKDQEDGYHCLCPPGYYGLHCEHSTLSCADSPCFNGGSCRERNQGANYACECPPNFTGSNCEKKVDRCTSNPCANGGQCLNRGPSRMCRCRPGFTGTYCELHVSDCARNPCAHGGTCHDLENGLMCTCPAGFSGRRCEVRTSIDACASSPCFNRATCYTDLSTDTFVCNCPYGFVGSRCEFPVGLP

[28] = target: human DLL3 protein (extracellular segment, His tag) (human) (UniProt Q9NYJ7); assay: SPR (Biacore 8K), antibody captured on Protein A chip, DLL3 antigen in solution, 1:1 Langmuir fit
Chain of human DLL3 protein (extracellular segment, His tag) (human) (Q9NYJ7 27-492): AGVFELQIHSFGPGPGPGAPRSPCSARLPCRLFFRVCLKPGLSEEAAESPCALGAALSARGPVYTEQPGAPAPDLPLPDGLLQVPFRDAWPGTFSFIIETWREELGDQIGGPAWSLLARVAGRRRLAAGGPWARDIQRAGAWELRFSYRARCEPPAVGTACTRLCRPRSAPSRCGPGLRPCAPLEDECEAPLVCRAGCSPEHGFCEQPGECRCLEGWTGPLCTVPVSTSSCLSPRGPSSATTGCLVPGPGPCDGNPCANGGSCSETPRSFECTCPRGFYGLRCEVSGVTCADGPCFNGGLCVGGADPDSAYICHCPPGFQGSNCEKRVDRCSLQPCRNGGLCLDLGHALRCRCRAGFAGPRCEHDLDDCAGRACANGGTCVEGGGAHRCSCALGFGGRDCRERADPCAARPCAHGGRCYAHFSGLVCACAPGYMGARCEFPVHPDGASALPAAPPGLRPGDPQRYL

[29] = target: monkey DLL3 on CHO-K1-cyno DLL3 cells (cynomolgus monkey); assay: FACS, CHO-K1-cyno DLL3 cells, 4 nM antibody
Chain of monkey DLL3 on CHO-K1-cyno DLL3 cells (cynomolgus monkey) (chain, as listed by the source limits assumed): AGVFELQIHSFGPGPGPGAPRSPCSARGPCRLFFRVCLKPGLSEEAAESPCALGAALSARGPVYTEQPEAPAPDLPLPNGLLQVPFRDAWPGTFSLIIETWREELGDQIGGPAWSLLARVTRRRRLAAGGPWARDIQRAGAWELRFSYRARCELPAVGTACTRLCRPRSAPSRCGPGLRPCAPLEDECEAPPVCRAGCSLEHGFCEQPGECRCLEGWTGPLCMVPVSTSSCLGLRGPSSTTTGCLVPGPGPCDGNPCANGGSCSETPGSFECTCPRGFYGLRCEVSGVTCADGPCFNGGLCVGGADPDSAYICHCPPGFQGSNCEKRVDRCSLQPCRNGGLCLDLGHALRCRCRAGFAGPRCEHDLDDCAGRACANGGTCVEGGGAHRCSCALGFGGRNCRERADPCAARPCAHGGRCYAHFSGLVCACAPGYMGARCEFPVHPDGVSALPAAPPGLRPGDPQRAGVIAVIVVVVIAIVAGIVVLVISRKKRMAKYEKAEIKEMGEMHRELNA

[30] = target: monkey DLL3 on CHO-K1-cyno DLL3 cells (cynomolgus monkey); assay: FACS, CHO-K1-cyno DLL3 cells, 20 nM antibody
[31] = target: monkey DLL3 on CHO-K1-cyno DLL3 cells (cynomolgus monkey); assay: FACS, CHO-K1-cyno DLL3 cells, 0.8 nM antibody
[32] = target: monkey DLL3 on CHO-K1-cyno DLL3 cells (cynomolgus monkey); assay: FACS, CHO-K1-cyno DLL3 cells, 100 nM antibody
[33] = target: monkey DLL3 on CHO-K1-cyno DLL3 cells (cynomolgus monkey); assay: FACS, CHO-K1-cyno DLL3 cells, 0.16 nM antibody
[34] = target: monkey DLL3 on CHO-K1-cyno DLL3 cells (cynomolgus monkey); assay: FACS, CHO-K1-cyno DLL3 cells, 0.032 nM antibody
[35] = target: monkey DLL3 on CHO-K1-cyno DLL3 cells (cynomolgus monkey); assay: FACS, CHO-K1-cyno DLL3 cells, 0.0064 nM antibody
[36] = target: monkey DLL3 on CHO-K1-cyno DLL3 cells (cynomolgus monkey); assay: FACS, CHO-K1-cyno DLL3 cells, 0.00128 nM antibody

Chain of human delta-like ligand 3 (DLL3) on SHP77 cells (human) (Q9NYJ7 27-618, stated change not applied): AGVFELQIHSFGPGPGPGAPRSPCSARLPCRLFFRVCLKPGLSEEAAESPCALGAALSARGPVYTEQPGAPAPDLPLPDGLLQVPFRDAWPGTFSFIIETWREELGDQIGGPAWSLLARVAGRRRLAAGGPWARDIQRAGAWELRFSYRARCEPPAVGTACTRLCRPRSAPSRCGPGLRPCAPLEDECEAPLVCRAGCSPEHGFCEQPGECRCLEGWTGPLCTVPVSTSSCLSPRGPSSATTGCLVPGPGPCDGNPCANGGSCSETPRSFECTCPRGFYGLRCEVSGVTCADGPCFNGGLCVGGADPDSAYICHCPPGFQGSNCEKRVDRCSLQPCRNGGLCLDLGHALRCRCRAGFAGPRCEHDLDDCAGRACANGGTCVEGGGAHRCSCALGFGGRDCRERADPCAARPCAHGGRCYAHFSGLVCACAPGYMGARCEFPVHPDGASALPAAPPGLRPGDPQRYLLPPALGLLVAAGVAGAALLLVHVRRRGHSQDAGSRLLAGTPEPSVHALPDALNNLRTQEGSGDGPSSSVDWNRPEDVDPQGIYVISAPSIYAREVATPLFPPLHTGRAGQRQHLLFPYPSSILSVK
Chain of DLL3 endogenously expressed on NCI-H82 cells (Q9NYJ7 27-618): as the sequence (Q9NYJ7 27-618, stated change not applied) above

- MFI at 0.00128 nM [1]: 116 MFI
- MFI at 0.0064 nM [1]: 131 MFI
- MFI at 0.032 nM [1]: 183 MFI
- MFI at 0.16 nM [1]: 323 MFI
- MFI at 0.8 nM [1]: 541 MFI
- MFI at 4 nM [1]: 719 MFI
- MFI at 20 nM [1]: 876 MFI
- MFI at 100 nM [1]: 1140 MFI
- MFI [2]: 1030
- MFI [3]: 1170
- MFI [4]: 831
- MFI [5]: 1520
- MFI [6]: 670
- MFI [7]: 14900 MFI
- MFI [8]: 557 MFI
- MFI [9]: 356
- MFI [10]: 16300 MFI
- MFI [11]: 655 MFI
- MFI [12]: 185
- MFI [13]: 11200 MFI
- MFI [14]: 19500 MFI
- MFI [15]: 463 MFI
- MFI [16]: 764 MFI
- MFI [17]: 130
- MFI [18]: 3190 MFI
- MFI [19]: 313 MFI
- MFI [20]: 789 MFI
- MFI [21]: 179 MFI
- MFI [22]: 270 MFI
- MFI [23]: 125 MFI
- MFI [24]: 164 MFI
- MFI [25]: 113 MFI
- Emax of OD450 nm binding value [26]: 0.05 OD450 nm
- Emax of OD450 nm binding value [27]: 0.05 OD450 nm
- Kd [28]: 0.112 nM
- koff [28]: 0.000371 s⁻¹
- kon [28]: 3.32e+06 M⁻¹ s⁻¹
B1: Hab013VL2VH2a-hFc (scFv, part only; not given: scFv linker and human IgG1 Fc, V domains shown, not shown: another chain or arm of the molecule; a dimerising Fc or GST; small tags and cut ends)
VL: EIVLTQSPATLSLSPGERATLSCRASKSVSTSGFSYMHWYQQKPGQPPRLLIYLASNLESGIPARFSGSGSGTDFTLTISSLEPEDFAVYYCQHSRELPFTFGQGTKLEIK
VH: EVQLVQSGAEVKKPGSSVKVSCKASGYAFSNYWINWVRQAPGQGLEWMGQINPGDGDTIYNSKFKGRVTITADKSTSTAYMELSSLRSEDTAVYYCEREGRNYGDFAYWGQGTTVTVSS

- MFI at 0.00128 nM [1]: 199 MFI
- MFI at 0.0064 nM [1]: 281 MFI
- MFI at 0.032 nM [1]: 528 MFI
- MFI at 0.16 nM [1]: 1050 MFI
- MFI at 0.8 nM [1]: 1330 MFI
- MFI at 4 nM [1]: 1500 MFI
- MFI at 20 nM [1]: 1620 MFI
- MFI at 100 nM [1]: 1870 MFI
- MFI [7]: 13800 MFI
- MFI [8]: 577 MFI
- MFI [10]: 14500 MFI
- MFI [11]: 605 MFI
- MFI [13]: 11900 MFI
- MFI [14]: 15400 MFI
- MFI [15]: 495 MFI
- MFI [16]: 580 MFI
- MFI [18]: 4700 MFI
- MFI [19]: 343 MFI
- MFI [20]: 1340 MFI
- MFI [29]: 8510 MFI
- MFI [21]: 185 MFI
- MFI [22]: 458 MFI
- MFI [30]: 9180 MFI
- MFI [23]: 118 MFI
- MFI [24]: 243 MFI
- MFI [31]: 7810 MFI
- MFI [32]: 10500 MFI
- MFI [25]: 99 MFI
- MFI [33]: 3970 MFI
- MFI [34]: 1340 MFI
- MFI [35]: 494 MFI
- MFI [36]: 276 MFI
- Emax of OD450 nm binding value [26]: 0.05 OD450 nm
- Emax of OD450 nm binding value [27]: 0.06 OD450 nm
- Kd [28]: 0.395 nM
- koff [28]: 0.000156 s⁻¹
- kon [28]: 394000 M⁻¹ s⁻¹
B2: Hab006VL4VH2-hFc (scFv, part only; not given: scFv linker and human IgG1 Fc, V domains shown, not shown: another chain or arm of the molecule; a dimerising Fc or GST; small tags and cut ends)
VL: DIVMTQSPDSLAVSLGERATINCRATKSISKYLAWYQQKPGQTNKLLIFSGSTLQSGVPDRFSGSGSGTDFTLTISSLQAEDVAVYYCQQHHEYPYTFGGGTKVEIK
VH: EVQLVQSGAEVKKPGASVKVSCKASGYTFTSYWMHWVRQAPGQRLEWMGVIDPSDSLANYNQEFKGRVTLTVDTSASTAYMELSSLRSEDTAVYYCARDSTVVAPMDYWGQGTTVTVSS
